Test results: US20220056124A1 (University of Texas, published 2022)
Positions count from the first letter of the chain named.

B1: ETP-mAb2 (antibody, V domains shown)
VH: EQSLEESEGGLVQPEGSLTLTCTASGFSFSRSDYMCWVRQAPGKGLEWIGWIDPGYSDTYYASWAQGRTTISKASSTTVTLQMTSLTVADTATYFCARDLGFDSNLWGPGTLVTISS
VL: ELDLTQTPASVSEPVGGTVTIKCQASQSINSYLSWYQQKPGQPPKLLIYQASKLASGVPSRFKGSGSGTQFTLTISDLECADAATYYCQSYDYRISGSDGNVFGGGTNVEIK
notes: Rabbit monoclonal
B2: ETP-mAb6 (antibody, V domains shown)
VH: QSVKESEGGLVQPEGSLTLTCTASGFSFSNSDYMCWVRQAPGKGLEWIGWIDLVGNTNSYYASWAKGRFTISKTSSTTVALQMTSLTVADTATYFCARDLGFDTNLWGPGTLVTVSS
VL: ELDLTQTPASVSAAVGGTVTINCQASQNINSWLSWYQQKPGQRPKLLIYQASKLPSGVPSRFKGSGSGTQFTLTISDLECADAATYYCQSHDYRTTGSYGNVFGGGTEVEIK
notes: Rabbit monoclonal
B3: ETP-mAb1 (antibody, V domains shown)
VH: QSVKESGGDLVKPGASLTLTCTASGIDFSAGYYMCWVRQAPGKGLELIACIYAGRSLNTFYASWAKGRFTISRASSTTVTLAMTSLTAADTATYFCARDGASSGYYFKLWGPGTLVTISS
VL: ELDMTQTPASVEVAVGGTVTIKCQASQSIGSNLAWYQQKPGQRPNVLIYDASNLASGVSSRFKGSGSGTQFTLTISGGECADAATYYCQQGYSDNYLDNAFGGGTEVVVK
notes: Rabbit monoclonal
B4: ETP-mAb11 (antibody, V domains shown)
VH: QSVKESEGGLVQPEGSLTLTCTASGFSFSSSYYMCWVRQAPGKGLEWIGCIYLGNNENTAYTSWAKGRFTISKTSSTTVTLQMTSLTAADTTTYFCARDTSGGSDYYFGLWGPGTLVTISS
VL: ELDLTQTPASVEVAVGGTVTIKCQASHRIKTYLAWYQQKPGQPPKLLIYGASTLASGVPSRFKGSGSGTQFTLTISGVECADAATYYCQQGYSDGNVDNVFGGGTEVEIK
notes: Rabbit monoclonal
B5: ETP-mAb10 (antibody, V domains shown)
VH: QSLEESGGGLVQPEGSLTLTCTASGFSFSRGDYMCWVRQAPGKGLEWIGWIDVGRDNDSYYATWAKGRFSISKTSSTTVTLQMTSLTVADTATYFCARDLGFDTNLWGPGTLVTVSS
VL: ELDMTQTPASVSAAVGGTVTINCQASQNINSWLSWYQQKPGQPPKLLIYQASKLASGVPSRLKGSGSGTQFSLTISDLECADGATYYCQSYDYRSSGNGGNVFGGGTEVEIK
notes: Rabbit monoclonal
B6: ETP-mAb72 (antibody, V domains shown)
VH: B5 VH with M34V, R55S, D56V, N57I, D58E, S70T
VL: ELVMTQTPASVEAAVGGTVTINCQASESISIYLNWYQQKPGQPPKLLIYQASKLASGVPSRFKGSGSGTEFTLTISDLECADAATYYCQSHDYRIGRSDCNVFGGGTNVEIK
notes: Rabbit monoclonal
B7: ETP-mAb4 (antibody, V domains shown)
VH: SSRVKESGGDLVKPGASLTLTCKASGFSFSSGYYICWVRQAPGKGLEWIACIYGGNNNPYYANWVNGRFTTSKTSSTTVTLQMTNLTGADTATYFCARKDINIGGAYELWGPGTLVTISS
VL: ELVMTQTPASVSEPVGGTVTINCQASQSISSSYLSWYQQKPGQPPKLLIYKASTLASGVPSRFKGSGSGTQFSLTISDLECADAATYYCQYSDWANSYGNAFGGGTEVVVK
notes: Rabbit monoclonal; also called parental rabbit ETPmAb4
B8: ETP-mAb4.1 (humanized ETP-hMab4) (antibody, human IgG1, V domains shown)
VH: EVQLLESGGGLVQPGGSLRLSCAASGFSFSSGYYICWVRQAPGKGLEWIACIYGGNNNPYYANWVNGRFTISRDNSKNTLYLQMNSLRAEDTAVYYCARKDINIGGAYELWGQGTLVTVSS
VL: DIQMTQSPSSLSASVGDRVTITCQASQSISSSYLSWYQQKPGKAPKLLIYKASTLASGVPSRFSGSGSGTDFTLTISSLQPEDFATYYCQYSDWANSYGNAFGGGTKVEIK
notes: Humanized; tied by the number 4.1; also called ENT-hMab4.1
B9: ETP-mAb4.4 (humanized ETP-hMab4) (antibody, human IgG1, V domains shown)
VH: B8 VH with I71T
VL: B8 VL
notes: also called ENT-hMab4.4
B10: ETP-mAb4.2 (humanized ETP-hMab4) (antibody, human IgG1, V domains shown)
VH: B8 VH with N57S
VL: B8 VL
notes: also called ENT-hMab4.2
B11: ETP-mAb4.5 (humanized ETP-hMab4) (antibody, human IgG1, V domains shown)
VH: B8 VH with S28T, N57S
VL: B8 VL
notes: also called ENT-hMab4.5

How the values were obtained:
[1] = target: T1, recombinant human endotrophin (77 amino acids at the carboxy-terminal of the COL6α3 chain, HEK293-expressed, … (human, UniProt P12111 3101-3177)); assay: ELISA titration on plate-coated recombinant endotrophin, 4-parameter fit
T1 construct: the His-tag was removed by enterokinase, leaving the 77 amino acid endotrophin free of tags; also called ETP; recombinant endotrophin protein
Description: (§1) Antibody-antigen ELISA Binding Assay. Corning 96-well EIA/RIA plates were coated overnight at 4° C. with HEK293 expressed recombinant endotrophin (1 μg/mL) and blocked for 2 hr at 37° C. with 5% non-fat milk. After washing with PBST for 3 times, 100 μL of serial diluted anti-endotrophin antibodies were added and incubated for 45 min at 37° C. Subsequently, the plates were washed with PBST and incubated for 30 min with anti-rabbit or anti-human F(ab′)2 HRP-conjugated antibody (Jackson ImmunoResearch Laboratories). The immunoreactions were developed with TMB substrates (Sigma) and stopped by the addition of 2 M sulfuric acid before reading the plate at 450 nm.
(§2) Binding of endotrophin by monoclonal antibodies was first screened by ELISA using supernatants collected from the B cell cultures (FIG. 10). ELISA titration was used to determine the binding affinity of a panel of monoclonal antibodies to endotrophin antigen (FIG. 11). Binding constants (EC₅₀) of a panel of monoclonal antibodies were estimated using four-parameter curve fitting with Prism GraphPad (Table 3).

[2] = target: T1, recombinant human endotrophin (77 amino …); assay: ELISA titration, plate coated with recombinant endotrophin, serially diluted antibody, HRP secondary antibody, OD450
Description: as §1, §2

[3] = target: T1, recombinant human endotrophin (77 amino …); assay: BLI (Octet RED96)
[4] = target: T1, recombinant human endotrophin (77 amino …); assay: BLI (Octet RED96), antibody on protein A biosensors, endotrophin 0.1-200 nM, 1:1 fit
Description: Following a short baseline in kinetics buffer, the loaded biosensors were exposed to a series of recombinant endotrophin protein at 0.1-200 nM and background subtraction was used to correct for sensor drifting. All experiments were performed with shaking at 1,000 rpm. Background wavelength shifts were measured from reference biosensors that were loaded only with antibody. Kinetic sensorgrams for each antibody are shown in FIGS. 12A&B. ForteBio's data analysis software was used to fit the data to a 1:1 binding model to extract an association rate and dissociation rate.

T1 sequence (P12111 3101-3177 limits assumed): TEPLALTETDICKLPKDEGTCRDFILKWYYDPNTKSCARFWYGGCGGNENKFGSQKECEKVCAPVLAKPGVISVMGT

Binder | EC50 [1] [µg/mL] | EC50 (read off the curve) [2] [µg/mL] | Kd [3] [nM] | Kd [4] [nM] | koff [4] [s⁻¹] | kon [4] [M⁻¹ s⁻¹]
B1 | 0.1 | ~0.1 | – | – | – | –
B2 | 0.053 | ~0.06 | – | – | – | –
B3 | 0.023 | ~0.02 | – | – | – | –
B4 | 0.359 | ~0.4 | – | – | – | –
B5 | 0.142 | ~0.1 | – | – | – | –
B6 | 0.306 | ~0.3 | – | – | – | –
B7 | 0.054 | ~0.06 | 1.62 | 1.75 | 0.000249 | 142000
B8 | – | – | – | 2.03 | 0.000235 | 116000
B9 | – | – | – | 2.53 | 0.000328 | 130000
B10 | – | – | – | 2.48 | 0.000305 | 123000
B11 | – | – | – | 1.92 | 0.000223 | 116000
